This note sets out measurements from paper PMC6415886.

For orientation: stoichiometry N means a count of units in the complex or per binding partner.

The assay addresses T1, INTP5 (biosimilar pegfilgrastim, N-terminally pegylated filgrastim produced by Intas) (human), P09919.
T1 chain: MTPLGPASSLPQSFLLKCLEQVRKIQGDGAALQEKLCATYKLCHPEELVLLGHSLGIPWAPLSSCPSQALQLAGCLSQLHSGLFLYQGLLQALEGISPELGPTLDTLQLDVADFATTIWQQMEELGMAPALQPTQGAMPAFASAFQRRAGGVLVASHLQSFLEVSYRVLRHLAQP
The experiment in a line: SEC-MALS; vortexed (stress aggregated) INTP5; TSKgel G3000 SWXL, phosphate buffer with 100 mM NaCl and 10% ethanol, 25°C; 36 μg loaded. Conditions: remark: other sources report otherwise. (In general: Size exclusion chromatography separates by hydrodynamic size, large species first.)

B1: INTP5 (biosimilar pegfilgrastim, N-terminally pegylated filgrastim produced by Intas), P09919-2 31-204 (ligand)
chain: MTPLGPASSLPQSFLLKCLEQVRKIQGDGAALQEKLCATYKLCHPEELVLLGHSLGIPWAPLSSCPSQALQLAGCLSQLHSGLFLYQGLLQALEGISPELGPTLDTLQLDVADFATTIWQQMEELGMAPALQPTQGAMPAFASAFQRRAGGVLVASHLQSFLEVSYRVLRHLAQP
modifications: here or on the partner: 20 kDa monomethoxypolyethylene glycol (mPEG) on the N-terminal amino group of Met1, secondary amine linkage; 20 kDa monomethoxypolyethylene glycol (mPEG) on the N-terminal amino group of Met1, secondary amine linkage
In the case of B1, the stoichiometry N was found to be 2.
